Test results: paper PMC5389812, “Rv3634c from Mycobacterium tuberculosis H37Rv encodes an enzyme with UDP-Gal/Glc and UDP-GalNAc 4-epimerase activities” (PLoS ONE, 2017)

Target: the molecule itself
Assay: SEC; Superdex 200 16/600 GL column, FPLC buffer (20 mM Tris pH 8.0, 100 mM NaCl); calibrated with conalbumin, ovalbumin, carbonic anhydrase, ribonuclease A and aprotinin; molecular weight from Kav

B1: His-tagged Rv3634c (H3634), wild type, UDP-Gal/Glc and UDP-GalNAc 4-epimerase from Mycobacterium tuberculosis H37Rv (enzyme)
chain: MRALVTGAAGFIGSTLVDRLLADGHSVVGLDNFATGRATNLEHLADNSAHVFVEADIVTADLHAILEQHRPEVVFHLAAQIDVRRSVADPQFDAAVNVIGTVRLAEAARQTGVRKIVHTSSGGSIYGTPPEYPTPETAPTDPASPYAAGKVAGEIYLNTFRHLYGLDCSHIAPANVYGPRQDPHGEAGVVAIFAQALLSGKPTRVFGDGTNTRDYVFVDDVVDAFVRVSADVGGGLRFNIGTGKETSDRQLHSAVAAAVGGPDDPEFHPPRLGDLKRSCLDIGLAERVLGWRPQIELADGVRRTVEYFRHKHTD
notes: the protein is called H3634 (His-tagged Rv3634c) in the size exclusion experiment; also called WT; WT H3634; not shown: His6, N-terminal, kept
stoichiometry N: 2
